The target of assay [1] is GAL4 BD/TRAF-5 fusion (pGBT9/TRAF-5) (UniProt P04386 1-147; O00463 1-557, limits assumed). Kind of assay: yeast two-hybrid (β-gal, growth without His).
Assay [2] has as its target GAL4 BD/TRAF-2 fusion (pGBT9/TRAF-2) (UniProt P04386 1-147; Q12933 1-501, limits assumed). Kind of assay: yeast two-hybrid (β-gal, growth without His).
Assay [3] concerns the target GAL4 BD/TRAF-4 fusion (pGBT9/TRAF-4) (UniProt P04386 1-147; Q9BUZ4 1-470, limits assumed). Kind of assay: yeast two-hybrid (β-gal, growth without His).
Assay [4] concerns the target GAL4 BD/TRAF-6 fusion (pGBT9/TRAF-6) (UniProt P04386 1-147; Q9Y4K3 1-522, limits assumed). Kind of assay: yeast two-hybrid (β-gal, growth without His).
The target in assay [5] is T1, HA-tagged β-galactosidase (pCGN/LacZ) (UniProt P00722 1-1024 = β-galactosidase).
T1 construct: Specificity control, over-expressed in 293T cells; also called HA-LacZ; RA-LacZ; not shown: N-terminal hemagglutinin (HA) tag of vector pCGN
T1 sequence (P00722 whole entry): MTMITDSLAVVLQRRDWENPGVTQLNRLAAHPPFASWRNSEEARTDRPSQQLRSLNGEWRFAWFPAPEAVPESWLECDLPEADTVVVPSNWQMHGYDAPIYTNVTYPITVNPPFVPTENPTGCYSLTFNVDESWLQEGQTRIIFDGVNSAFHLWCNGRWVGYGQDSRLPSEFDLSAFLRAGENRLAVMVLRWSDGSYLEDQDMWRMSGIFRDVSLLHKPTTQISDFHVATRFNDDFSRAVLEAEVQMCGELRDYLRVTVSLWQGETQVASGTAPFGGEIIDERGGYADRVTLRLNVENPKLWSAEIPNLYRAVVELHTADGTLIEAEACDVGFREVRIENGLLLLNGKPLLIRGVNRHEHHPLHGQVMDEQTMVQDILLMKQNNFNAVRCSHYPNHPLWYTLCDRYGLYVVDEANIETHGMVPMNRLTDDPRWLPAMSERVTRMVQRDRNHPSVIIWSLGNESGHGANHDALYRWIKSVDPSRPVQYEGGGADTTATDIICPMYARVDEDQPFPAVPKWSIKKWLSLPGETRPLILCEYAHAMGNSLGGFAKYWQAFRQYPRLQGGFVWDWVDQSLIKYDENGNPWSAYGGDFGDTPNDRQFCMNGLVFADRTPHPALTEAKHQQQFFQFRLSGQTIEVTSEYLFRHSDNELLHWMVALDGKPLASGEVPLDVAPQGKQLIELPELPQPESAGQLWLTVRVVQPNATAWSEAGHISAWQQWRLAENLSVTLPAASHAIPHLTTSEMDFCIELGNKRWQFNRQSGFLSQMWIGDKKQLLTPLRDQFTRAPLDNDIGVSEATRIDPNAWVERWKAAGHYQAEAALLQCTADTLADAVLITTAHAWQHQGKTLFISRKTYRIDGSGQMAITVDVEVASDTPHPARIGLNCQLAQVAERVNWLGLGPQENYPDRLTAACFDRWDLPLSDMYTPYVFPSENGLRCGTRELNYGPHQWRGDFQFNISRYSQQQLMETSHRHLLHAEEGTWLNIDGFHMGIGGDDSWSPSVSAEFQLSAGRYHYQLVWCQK
The assay can be described thus: co-immunoprecipitation from 293T lysates, anti-HA IP, anti-X-press blot. How it is done:
Samples were separated by 10% SDS PAGE and transferred to Immobilon-P PVDF membranes (Millipore Corporation, Bedford, Mass.). Membranes were washed with 1× Tris Buffered Saline (TBS) containing 50 mM Tris pH 7.5 (Fisher Scientific) and 150 mM sodium chloride (Fisher Scientific), and then blocked in 1% Blocking Reagent (Roche Molecular Biochemicals) dissolved in 1×TBS.
(§1) Membranes were probed with anti-Xpress, diluted 1:5000 in 0.5% Blocking Reagent, or anti-HA (12CA5) at 0.4 μg/ml (Roche Molecular Biochemicals) in 0.5% Blocking Reagent. Membranes were incubated for 1 hour, then washed twice with TBS containing 0.1% Tween-20 (Sigma Chemical Co.) (1× TBST) and twice with 0.5% Blocking Reagent. Membranes were incubated with anti-mouse IgG-Peroxidase (Roche Molecular Biochemicals) at 1:2500 in 0.5% Blocking Reagent for 60 minutes at room temperature, then washed 4 times in 1× TBST. Proteins were detected with the BM Chemiluminescence Blotting Substrate (POD) (Roche Molecular Biochemicals). Following detection, membranes were stripped of antibodies by incubation with stripping solution containing 62.5 mM Tris pH 6.7, 2% SDS, and 50 mM 2-mercaptoethanol (Fisher Scientific) for 30 minutes at 50° C. The membranes were rinsed with distilled water and then with 1×TBS. The stripped membranes were blocked and reprobed with antibodies as described above.

Assay [6] deals with T2, His-tagged TRAF-2 (pEBVHis/TRAF-2) (UniProt Q12933 1-501).
T2 construct: Specificity control, over-expressed in 293T cells
T2 sequence (looked up): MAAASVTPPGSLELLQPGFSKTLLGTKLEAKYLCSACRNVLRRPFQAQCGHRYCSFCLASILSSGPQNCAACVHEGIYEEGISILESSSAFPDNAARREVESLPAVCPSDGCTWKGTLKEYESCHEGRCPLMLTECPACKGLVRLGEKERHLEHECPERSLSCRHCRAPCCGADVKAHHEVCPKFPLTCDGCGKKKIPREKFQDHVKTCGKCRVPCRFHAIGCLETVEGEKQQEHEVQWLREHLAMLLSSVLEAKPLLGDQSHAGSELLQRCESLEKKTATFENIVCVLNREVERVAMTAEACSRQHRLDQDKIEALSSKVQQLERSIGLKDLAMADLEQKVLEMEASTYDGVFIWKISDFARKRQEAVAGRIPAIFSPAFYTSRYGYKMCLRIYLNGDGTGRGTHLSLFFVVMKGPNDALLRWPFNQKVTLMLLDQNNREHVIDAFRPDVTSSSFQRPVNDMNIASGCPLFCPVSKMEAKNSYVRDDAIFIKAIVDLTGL
Kind of assay: co-immunoprecipitation from 293T lysates, anti-X-press IP, anti-HA blot. The method, then: Membranes were washed with 1× Tris Buffered Saline (TBS) containing 50 mM Tris pH 7.5 (Fisher Scientific) and 150 mM sodium chloride (Fisher Scientific), and then blocked in 1% Blocking Reagent (Roche Molecular Biochemicals) dissolved in 1×TBS.
as §1

Assay [7] addresses T3, GAL4 BD fusion of TRAF-3 aa 110-265 (Zn fingers only), in pGBT9 (human, UniProt P04386 1-147; Q13114 110-265).
T3 construct: The range is printed without its hyphen
Kind of assay: yeast two-hybrid.

Assay [8] deals with GAL4 BD fusion of TRAF-3 aa 267-343 (coiled-coil domain only), in pGBT9 (human, UniProt P04386 1-147; Q13114 267-343). Kind of assay: yeast two-hybrid.
Assay [9] concerns the target T4, GAL4 DNA-binding domain (BD)/full-length TRAF-3 fusion construct (pGBT9/TRAF-3) (human, UniProt P04386 1-147; Q13114 1-568).
T4 construct: Yeast two-hybrid fusion expressed in yeast Y190; BD is put first as in the vector; also called BD/TRAF-3; bait construct
Kind of assay: yeast two-hybrid.

B1: GAL4 AD fusion of p62 nucleoporin aa 270-522 (pACT/p62(270-522)) (other, UniProt P37198 270-522, looked up, not shown: large carriers)
chain: TTSTAATATATTTSSSSTTGFALNLKPLAPAGIPSNTAAAVTAPPGPGAAAGAAASSAMTYAQLESLINKWSLELEDQERHFLQQATQVNAWDRTLIENGEKITSLHREVEKVKLDQKRLDQELDFILSQQKELEDLLSPLEELVKEQSGTIYLQHADEEREKTYKLAENIDAQLKRMAQDLKDIIEHLNTSGAPADTSDPLQQICKILNAHMDSLQWIDQNSALLQRKVEEVTKVCEGRRKEQERSFRITFD
For B1, the binding result in [1], in assay [2], in [3] and in assay [4] was “no binding” each time.

B2: His-tagged TRAF-3 (pEBVHis/TRAF-3), amino-terminal poly-histidine tag and X-press epitope (other, human, UniProt Q13114 1-568, looked up, not shown: small tags and cut ends)
chain: MESSKKMDSPGALQTNPPLKLHTDRSAGTPVFVPEQGGYKEKFVKTVEDKYKCEKCHLVLCSPKQTECGHRFCESCMAALLSSSSPKCTACQESIVKDKVFKDNCCKREILALQIYCRNESRGCAEQLMLGHLLVHLKNDCHFEELPCVRPDCKEKVLRKDLRDHVEKACKYREATCSHCKSQVPMIALQKHEDTDCPCVVVSCPHKCSVQTLLRSELSAHLSECVNAPSTCSFKRYGCVFQGTNQQIKAHEASSAVQHVNLLKEWSNSLEKKVSLLQNESVEKNKSIQSLHNQICSFEIEIERQKEMLRNNESKILHLQRVIDSQAEKLKELDKEIRPFRQNWEEADSMKSSVESLQNRVTELESVDKSAGQVARNTGLLESQLSRHDQMLSVHDIRLADMDLRFQVLETASYNGVLIWKIRDYKRRKQEAVMGKTLSLYSQPFYTGYFGYKMCARVYLNGDGMGKGTHLSLFFVIMRGEYDALLPWPFKQKVTLMLMDQGSSRRHLGDAFKPDPNSSSFKKPTGEMNIASGCPVFVAQTVLENGTYIKDDTIFIKVIVDTSDLPDP
notes: Over-expressed in 293T cells; tested in cell lysates
For B2, in [5], the binding result is “no binding”.

B3: HA-tagged p62(336-522) (pCGN/p62(336-522)), N-terminal hemagglutinin tag (other)
chain: LINKWSLELEDQERHFLQQATQVNAWDRTLIENGEKITSLHREVEKVKLDQKRLDQELDFILSQQKELEDLLSPLEELVKEQRATIYLQHADEERQKTYKLAENIDAQLKRMAQDLKDIIEHLNTSGAPADTSDPLQQICKILNAHMDSLQWIDQNSALLQRKVEEVTKVCVGRRKEQERSFRITFD
notes: not shown: N-terminal hemagglutinin (HA) tag of vector pCGN
Turning to B3, in assay [6], the binding result is on record as “no binding”.

B4: GAL4 AD fusion of p62 nucleoporin aa 336-522 (pACT/p62(336-522)) (other, not shown: large carriers)
chain: B3 chain
Regarding B4, the binding result in assay [7] and in [8] was “no binding” each time.

B5: GAL4 AD fusion of p62 nucleoporin aa 302-391 (deletion mutant in pGAD424) (other, not shown: large carriers; small tags and cut ends)
chain: IPSNTAAAVTAPPGPGAAAGAAASSAMTYAQLESLINKWSLELEDQERHFLQQATQVNAWDRTLIENGEKITSLHREVEKVKLDQKRLDQ
Turning to B5, the binding result in assay [9] was “no binding”.

The values are drawn from US20060035823A1 (published 2006).
